Experimental data from patent US20230051304A1 (Regeneron, published 2023).
Read-outs that look alike come from different tables or passages of the source.

Tests used:
Assay in all cases: cell-based or functional assay
[1] = molecular target: murine IL12 receptor complex (IL12Rβ1 and IL12Rβ2) (mouse) (UniProt Q60837)
[2] = molecular target: murine IL12 receptor complex (IL12Rβ1 and IL12Rβ2) (mouse) (UniProt Q60837); remark: listed apart in the source
[3] = molecular target: murine IL12 receptor complex (IL12Rβ1 and IL12Rβ2) (mouse) (UniProt Q60837); remark: listed apart in the source

Sequence of murine IL12 receptor complex (IL12Rβ1 and IL12Rβ2) (mouse) (Q60837 20-738, chain 1 of 2): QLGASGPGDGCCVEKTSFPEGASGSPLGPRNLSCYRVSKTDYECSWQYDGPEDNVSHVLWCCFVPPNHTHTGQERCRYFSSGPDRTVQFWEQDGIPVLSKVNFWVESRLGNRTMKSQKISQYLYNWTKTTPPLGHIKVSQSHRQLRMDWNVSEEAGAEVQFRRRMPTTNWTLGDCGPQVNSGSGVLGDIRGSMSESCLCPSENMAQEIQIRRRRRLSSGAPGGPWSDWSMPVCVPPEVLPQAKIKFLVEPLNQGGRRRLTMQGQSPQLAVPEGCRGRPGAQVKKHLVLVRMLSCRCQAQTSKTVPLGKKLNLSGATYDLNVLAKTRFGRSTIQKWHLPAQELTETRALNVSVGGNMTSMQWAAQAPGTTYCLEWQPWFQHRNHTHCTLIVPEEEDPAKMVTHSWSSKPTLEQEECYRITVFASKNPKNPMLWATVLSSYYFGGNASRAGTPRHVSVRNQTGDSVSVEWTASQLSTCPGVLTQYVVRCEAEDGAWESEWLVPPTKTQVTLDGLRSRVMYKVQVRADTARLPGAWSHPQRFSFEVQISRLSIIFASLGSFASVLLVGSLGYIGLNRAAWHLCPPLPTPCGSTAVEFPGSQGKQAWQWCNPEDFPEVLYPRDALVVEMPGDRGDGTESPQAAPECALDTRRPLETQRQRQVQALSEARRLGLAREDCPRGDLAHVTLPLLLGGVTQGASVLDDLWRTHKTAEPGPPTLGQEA
Sequence of murine IL12 receptor complex (IL12Rβ1 and IL12Rβ2) (mouse) (P97378 24-874, chain 2 of 2, further chain): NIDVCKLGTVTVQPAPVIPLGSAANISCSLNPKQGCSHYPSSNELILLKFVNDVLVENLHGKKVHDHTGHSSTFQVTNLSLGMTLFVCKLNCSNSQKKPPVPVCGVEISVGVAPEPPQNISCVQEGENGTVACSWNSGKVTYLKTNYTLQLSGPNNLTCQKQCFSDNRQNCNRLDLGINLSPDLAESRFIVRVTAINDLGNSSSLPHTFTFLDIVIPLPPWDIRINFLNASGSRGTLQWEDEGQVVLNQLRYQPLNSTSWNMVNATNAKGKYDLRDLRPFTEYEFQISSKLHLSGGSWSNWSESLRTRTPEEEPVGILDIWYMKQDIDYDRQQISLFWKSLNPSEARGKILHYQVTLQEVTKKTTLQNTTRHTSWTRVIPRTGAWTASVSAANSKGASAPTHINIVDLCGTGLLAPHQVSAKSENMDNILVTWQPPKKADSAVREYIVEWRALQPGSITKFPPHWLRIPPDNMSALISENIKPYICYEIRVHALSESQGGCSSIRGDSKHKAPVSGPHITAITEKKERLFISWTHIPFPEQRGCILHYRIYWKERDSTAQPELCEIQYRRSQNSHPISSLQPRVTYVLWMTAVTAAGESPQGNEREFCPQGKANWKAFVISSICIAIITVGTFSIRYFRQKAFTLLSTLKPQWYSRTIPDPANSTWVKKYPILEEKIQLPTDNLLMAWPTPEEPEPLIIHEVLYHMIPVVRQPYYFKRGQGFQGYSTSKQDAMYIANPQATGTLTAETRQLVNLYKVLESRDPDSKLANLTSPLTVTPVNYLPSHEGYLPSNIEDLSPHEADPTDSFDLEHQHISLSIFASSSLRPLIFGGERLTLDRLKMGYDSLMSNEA

B1: recombinant mIL12 (ligand, mouse)
chain 1: RVIPVSGPARCLSQSRNLLKTTDDMVKTAREKLKHYSCTAEDIDHEDITRDQTSTLKTCLPLELHKNESCLATRETSSTTRGSCLPPQKTSLMMTLCLGSIYEDLKMYQTEFQAINAALQNHNHQQIILDKGMLVAIDELMQSLNHNGETLRQKPPVGEADPYRVKMKLCILLHAFSTRVVTINRVMGYLSSA
chain 2: MWELEKDVYVVEVDWTPDAPGETVNLTCDTPEEDDITWTSDQRHGVIGSGKTLTITVKEFLDAGQYTCHKGGETLSHSHLLLHKKENGIWSTEILKNFKNKTFLKCEAPNYSGRFTCSWLVQRNMDLKFNIKSSSSSPDSRAVTCGMASLSAEKVTLDQRDYEKYSVSCQEDVTCPTAEETLPIELALEARQQNKYENYSTSFFIRDIIKPDPPKNLQMKPLKNSQVEVSWEYPDSWSTPHSYFSLKFFVRIQRKKEKMKETEEGCNQKGAFLVEKTSTEVQCKGGNVCVQAQDRYYNSSCSKWACVPCRVRS
EC50 (M); STAT3-Luc reporter, CTLL2/STAT3-Luc cells [1]: 5.56e-11 M | Fold induction at 6.25 nM; STAT3-Luc reporter, CTLL2/STAT3-Luc cells [1]: 12.2 fold | Max fold induction; STAT3-Luc reporter, CTLL2/STAT3-Luc cells [1]: 12.4 fold | EC50 (M); STAT3-Luc reporter, CTLL2/STAT3-Luc cells [2]: 3.46e-11 M | Fold induction at 20 nM; STAT3-Luc reporter, CTLL2/STAT3-Luc cells [2]: 18.8 fold | Max fold induction; STAT3-Luc reporter, CTLL2/STAT3-Luc cells [2]: 19.1 fold | EC50 (M); STAT3-Luc reporter, CTLL2/STAT3-Luc cells [3]: 3.71e-10 M | Max fold induction; STAT3-Luc reporter, CTLL2/STAT3-Luc cells [3]: 17.8 fold
